From patent publication US20240270828A1
pKd: −log10 of the molar value.

Target: SARS-CoV-2 S (SARS-CoV-2) (UniProt P0DTC2)
Assay: SPR Biacore T200, hmAb captured, S injected, 1:1 fit

Point of comparison: CC40.8 (antibody), pKd 8.17. Against it:
- CV3-25 (antibody) — 0.29 log units lower, 7.88
- S2P6 (antibody) — 0.68 log units lower, 7.49
